Source: patent US10603364B2, “Lysosomal targeting and uses thereof” (Shire Human Genetic Therapies, Inc., priority 2014, dated 2020)

Assays:
Naglu KO mice [1] = experiment: Immunohistochemical staining of Lamp-1, GFAP and Iba-1 in brain and liver; type: in vivo; conditions: intrathecal
Method: (§1) To evaluate the in vivo activity of Naglu-SPP and its efficacy as a therapeutic for the treatment of lysosomal storage diseases, particularly San B, Naglu-SPP was administered to Naglu KO mice via intrathecal injection. Intrathecal administration of Naglu-IGFII served as a positive control. The experimental conditions used for this assay are described in Tables 10 and 11 below.
The lysosomal targeting of Naglu-SPP and Naglu-IGFII was further examined by immunohistochemical analysis. Tissue samples were collected, fixed in 10% NBF and processed for paraffin embedding. For each tissue assayed, 5 μm paraffin sections was subjected to immunostaining using antibodies against lamp lysosomal associated membrane protein 1 (Lamp-1), glial fibrillary acidic protein (GFAP) and the ionized calcium-binding adapter molecule 1 (Iba-1).

Naglu KO mice [2] = experiment: Sanfillipo B specific biomarkers in brain by LC/MS; type: in vivo; conditions: intrathecal, 520 mg/kg brain, especially 2× weekly and 3× weekly
Method: as §1
Using the same LC/MS technology as used for the quantification of heparin sulfate (see above), the presence of Sanfillipo B specific biomarkers in brains of treated KO mice were evaluated. Naglu deficiency causes the accumulation of certain heparin sulfate degradation products (presented in FIGS. 13A-C) which are natural substrates of Naglu. These biomarkers are the most relevant indications for Naglu deficiency.

wild-type rats [3] = experiment: Naglu enzyme activity in liver and brain after intrathecal administration (biodistribution); type: in vivo; conditions: 385 ug/animal; for Naglu enzyme activity in brain: 4 or 24 hours post dose
Method: (§2) To evaluate biodistribution of the SORT1-binding Naglu fusion proteins, an in vivo study was conducted using wild-type rats subjected to intrathecal administration of vehicle control (PBS), rhNaglu, Naglu-IGFII, Naglu-SPP, Naglu-SapDC or Naglu-tPRGN. Details of the experimental design are provide in Table 9 below. Previous experiments had shown that Naglu-IGFII but not rhNaglu penetrates into brain tissue and is targeted to lysosomes after intrathecal injection. Accordingly, rhNaglu and Naglu-IGFII were utilized in this study as negative and positive controls, respectively.
Rats were sacrificed either 4 or 24 hours post intrathecal administration of the respective fusion protein and total Naglu enzyme activity in the animals' liver and brain tissue was determined using a well-established enzyme activity assay (FIGS. 7A and B). Briefly, brain and liver tissue homogenates were prepared and incubated in the presence of a Naglu specific substrate, i.e., methylumbelliferyl-N-acetyl-α-D-glucosainide; accumulation of cleavage product was then measured by examining fluorescence intensity at 360/460 nm (excitation/emission) using a fluorescent plate reader.

Naglu KO mice [4] = experiment: Heparan sulfate in brain by LC/MS; type: in vivo; conditions: intrathecal, 520 mg/kg brain, 2× weekly and 3× weekly
Method: as §1
In a second assay, we evaluation the total amount of heparan sulfate in the brain of treated KO mice. […] To measure heparan sulfate in mouse brain tissue, a highly sensitive LC/MS method was applied (Lawrence et al, 2012, Nat Chem Biol. 2012 Jan. 8; 8(2):197-204). Briefly, total GAG from brain tissue was extracted by a DEAE column and a desalting column, and then dried and weighted. The extracted GAG was treated with heparin lyases that specifically release unique mono, di and tri saccharides of heparan sulfate, and the sample was then analyzed by LC/MS. The released saccharides were identified and quantified using commercially available saccharide standards of heparan sulfate degradation.

Naglu KO mice [5] = experiment: Total glycosaminoglycan (GAG) in liver and brain, dimethylmethylene blue; type: in vivo; conditions: intrathecal, 520 mg/kg brain; brain significant in 2× and 3× weekly groups
Method: as §1
The activity of Naglu-SPP and Naglu-IGFII in vivo was also evaluated by examining the intracellular accumulation of natural substrates of Naglu in treated mice. One such assay was designed to evaluate the total concentration of glycosaminoglycan (GAG) in liver (FIG. 11A) and brain (FIG. 11B) tissue of treated mice in accordance with de Jong et al. (Clin Chem 38(6):803-807, 1992). Briefly, liver tissue was homogenized and total GAG quantified using dimethylmethylene blue. Brain tissue was homogenized and then incubated with pronase and benzonase to break down protein and nucleic acid. Total GAG was then extracted by passing the brain homogenate through a DEAE column. The eluate was further buffer exchanged through a desalting column, and the total GAG content was quantified using dimethylmethylene blue. […] The reduction of total GAG amount in brain tissue was significant in the 2× weekly as well as the 3× weekly treatment groups.

Naglu KO mice [6] = experiment: Naglu enzyme activity in tissues of Naglu KO mice after intrathecal administration; type: in vivo; conditions: 520 mg/kg brain, 24 hrs post final dose
Method: as §1
24 hours after intrathecal administration of each respective fusion protein, Naglu KO mice were sacrificed and Naglu enzyme activity in various tissues was assayed. Total Naglu activity was evaluated using a well-established enzyme activity assay. Briefly, tissue homogenate was incubated in the presence of the Naglu specific substrate methylumbelliferyl-N-acetyl-α-D-glucosainide, and accumulation of cleavage product was measured by examining fluorescence intensity at 360/460 nm (excitation/emission) using a fluorescent plate reader. […] This increase in enzyme activity was observed over the duration of the 3 week treatment period.

wild-type rats [7] = experiment: Immunohistochemistry of Naglu protein in brain tissue after intrathecal administration; type: in vivo; conditions: for Naglu immunostaining in cerebral cortex / brain parenchyma: 4 and 24 hours post treatment
Method: as §2
Rats were sacrificed either 4 or 24 hours post intrathecal administration of the respective fusion protein. Brain tissue samples were collected, fixed in 10% NBF and processed for paraffin embedding. 5 μm paraffin sections from each tissue assayed were subjected to immunostaining using an anti-human Naglu antibody.

[8] = test system: SORT1 overexpressing cells; experiment: Cellular uptake in Sortilin overexpressing cells (intracellular Naglu enzyme activity); type: cell-based; conditions: absence of Neurotensin
Method: A cell line was established overexpressing SORT1, using standard technologies known in the art. […] After a specified period of time, the supernatant was removed and the cells were washed repeatedly. Then, cells were lysed and each sample was assayed for Naglu enzyme activity.

B1: Naglu-IGFII: Fusion protein of human Naglu and IGF-II residues 8-67 via GAG3 linker; SEQ ID NO:20, SEQ ID NO:25; positive control (protein)
chain: MEAVAVAAAVGVLLLAGAGGAAGDEAREAAAVRALVARLLGPGPAADFSVSVERALAAKPGLDTYSLGGGGAARVRVRGSTGVAAAAGLHRYLRDFCGCHVAWSGSQLRLPRPLPAVPGELTEATPNRYRYYQNVCTQSYSFVWWDWARWEREIDWMALNGINLALAWSGQEAIWQRVYLALGLTQAEINEFFTGPAFLAWGRMGNLHTWDGPLPPSWHIKQLYLQHRVLDQMRSFGMTPVLPAFAGHVPEAVTRVFPQVNVTKMGSWGHFNCSYSCSFLLAPEDPIFPIIGSLFLRELIKEFGTDHIYGADTFNEMQPPSSEPSYLAAATTAVYEAMTAVDTEAVWLLQGWLFQHQPQFWGPAQIRAVLGAVPRGRLLVLDLFAESQPVYTRTASFQGQPFIWCMLHNFGGNHGLFGALEAVNGGPEAARLFPNSTMVGTGMAPEGISQNEVVYSLMAELGWRKDPVPDLAAWVTSFAARRYGVSHPDAGAAWRLLLRSVYNCSGEACRGHNRSPLVRRPSLQMNTSIWYNRSDVFEAWRLLLTSAPSLATSPAFRYDLLDLTRQAVQELVSLYYEEARSAYLSKELASLLRAGGVLAYELLPALDEVLASDSRFLLGSWLEQARAAAVSEAEADFYEQNSRYQLTLWGPEGNILDYANKQLAGLVANYYTPRWRLFLEALVDSVAQGIPFQQHQFDKNVFQLEQAFVLSKQRYPSQPRGDTVDLAKKIFLKYYPRWVAGSWGAPGGGGGAAAAAGGGGGGAPGGGGGAAAAAGGGGGGAPGGGGGAAAAAGGGGGGAPLCGGELVDTLQFVCGDRGFYFSRPASRVSRRSRGIVEECCFRSCDLALLETYCATPAKSE
notes: Fusion protein of human Naglu and IGF-II residues 8-67 via GAG3 linker; positive control
**Q.** With B1 as the molecule, how does the “Lamp-1 immunostaining in brain (cerebral cortex, cerebellum, thalamus, striatum, white matter)” value (Naglu KO mice [1]; 2× weekly and 3× weekly) read?
**A.** decrease

**Q.** What about the “Lamp-1 immunoreactivity in liver” value (Naglu KO mice [1]; three weekly deliveries) of the same molecule?
**A.** reduced significantly

**Q.** What about the “GFAP staining in cerebral cortex and cerebellum (astrocytes)” value (Naglu KO mice [1]; three weekly injections) of the same molecule?
**A.** reduced signal

**Q.** And the “Iba-1 staining in cerebral cortex and cerebellum (microglial cells)” value (Naglu KO mice [1]; three weekly injections)?
**A.** microglial cells had a reduced size and a reduced number of processes

**Q.** And the “accumulation of three GAG cleavage products (San B biomarkers) in brain” value (Naglu KO mice [2])?
**A.** dramatic decrease

**Q.** And the “rank of Naglu enzyme activity in brain among treatments” value (wild-type rats [3])?
**A.** highest activity

**Q.** And the “Naglu enzyme activity in brain” value (wild-type rats [3])?
**A.** markedly elevated levels

**Q.** And the “total amount of heparan sulfate accumulation in brain tissue” value (Naglu KO mice [4])?
**A.** strong reduction

**Q.** What about the “total GAG concentration in liver and brain tissue vs vehicle control” value (Naglu KO mice [5]) of the same molecule?
**A.** significant reduction

**Q.** And the “Naglu activity in liver and brain tissue vs vehicle control” value (Naglu KO mice [6])?
**A.** dramatic increase

**Q.** And the “Naglu immunostaining in cerebral cortex / brain parenchyma” value (wild-type rats [7])?
**A.** positive staining

**Q.** What about the “Naglu immunostaining in cerebellum and hippocampal region” value (wild-type rats [7]; 24 hours post injection) of the same molecule?
**A.** strong Naglu signal

B2: Naglu-SapDC: Fusion protein of human Naglu and Prosaposin DC peptide (SapDC) via GAG3 linker; SEQ ID NO:19, SEQ ID NO:24 (protein)
chain: MEAVAVAAAVGVLLLAGAGGAAGDEAREAAAVRALVARLLGPGPAADFSVSVERALAAKPGLDTYSLGGGGAARVRVRGSTGVAAAAGLHRYLRDFCGCHVAWSGSQLRLPRPLPAVPGELTEATPNRYRYYQNVCTQSYSFVWWDWARWEREIDWMALNGINLALAWSGQEAIWQRVYLALGLTQAEINEFFTGPAFLAWGRMGNLHTWDGPLPPSWHIKQLYLQHRVLDQMRSFGMTPVLPAFAGHVPEAVTRVFPQVNVTKMGSWGHFNCSYSCSFLLAPEDPIFPIIGSLFLRELIKEFGTDHIYGADTFNEMQPPSSEPSYLAAATTAVYEAMTAVDTEAVWLLQGWLFQHQPQFWGPAQIRAVLGAVPRGRLLVLDLFAESQPVYTRTASFQGQPFIWCMLHNFGGNHGLFGALEAVNGGPEAARLFPNSTMVGTGMAPEGISQNEVVYSLMAELGWRKDPVPDLAAWVTSFAARRYGVSHPDAGAAWRLLLRSVYNCSGEACRGHNRSPLVRRPSLQMNTSIWYNRSDVFEAWRLLLTSAPSLATSPAFRYDLLDLTRQAVQELVSLYYEEARSAYLSKELASLLRAGGVLAYELLPALDEVLASDSRFLLGSWLEQARAAAVSEAEADFYEQNSRYQLTLWGPEGNILDYANKQLAGLVANYYTPRWRLFLEALVDSVAQGIPFQQHQFDKNVFQLEQAFVLSKQRYPSQPRGDTVDLAKKIFLKYYPRWVAGSWGAPGGGGGAAAAAGGGGGGAPGGGGGAAAAAGGGGGGAPGGGGGAAAAAGGGGGGAPDGGFCEVCKKLVGYLDRNLEKNSTKQEILAALEKGCSFLPDPYQKQCDQFVAEYEPVLIEILVEVMDPSFVCLKIGACPSAHKPLLGTEKCIWGPSYWCQNTETAAQCNAVEHCKRHVWN
**Q.** Which “cellular internalization (intracellular Naglu activity)” value [8] does the source give for B2 here?
**A.** only a very limited increase

**Q.** What about the “Naglu enzyme activity in brain” value (wild-type rats [3]) of the same molecule?
**A.** markedly elevated levels

**Q.** And the “Naglu immunostaining in cerebral cortex / brain parenchyma” value (wild-type rats [7])?
**A.** little to no Naglu signal

B3: Naglu-tPRGN: Fusion protein of human Naglu and Progranulin C-terminal peptide (tPRGN) via GAG3 linker; SEQ ID NO:18, SEQ ID NO:23 (protein)
chain: MEAVAVAAAVGVLLLAGAGGAAGDEAREAAAVRALVARLLGPGPAADFSVSVERALAAKPGLDTYSLGGGGAARVRVRGSTGVAAAAGLHRYLRDFCGCHVAWSGSQLRLPRPLPAVPGELTEATPNRYRYYQNVCTQSYSFVWWDWARWEREIDWMALNGINLALAWSGQEAIWQRVYLALGLTQAEINEFFTGPAFLAWGRMGNLHTWDGPLPPSWHIKQLYLQHRVLDQMRSFGMTPVLPAFAGHVPEAVTRVFPQVNVTKMGSWGHFNCSYSCSFLLAPEDPIFPIIGSLFLRELIKEFGTDHIYGADTFNEMQPPSSEPSYLAAATTAVYEAMTAVDTEAVWLLQGWLFQHQPQFWGPAQIRAVLGAVPRGRLLVLDLFAESQPVYTRTASFQGQPFIWCMLHNFGGNHGLFGALEAVNGGPEAARLFPNSTMVGTGMAPEGISQNEVVYSLMAELGWRKDPVPDLAAWVTSFAARRYGVSHPDAGAAWRLLLRSVYNCSGEACRGHNRSPLVRRPSLQMNTSIWYNRSDVFEAWRLLLTSAPSLATSPAFRYDLLDLTRQAVQELVSLYYEEARSAYLSKELASLLRAGGVLAYELLPALDEVLASDSRFLLGSWLEQARAAAVSEAEADFYEQNSRYQLTLWGPEGNILDYANKQLAGLVANYYTPRWRLFLEALVDSVAQGIPFQQHQFDKNVFQLEQAFVLSKQRYPSQPRGDTVDLAKKIFLKYYPRWVAGSWGAPGGGGGAAAAAGGGGGGAPGGGGGAAAAAGGGGGGAPGGGGGAAAAAGGGGGGAPTKCLRREAPRWDAPLRDPALRQLL
**Q.** B3 was tested. Which Bmax of binding/uptake [8] did it give?
**A.** 2060 nmol/h/mg

**Q.** What about the “cellular internalization (intracellular Naglu activity)” value [8] of the same molecule?
**A.** effectively internalized

**Q.** What about the “Naglu enzyme activity in brain” value (wild-type rats [3]) of the same molecule?
**A.** markedly elevated levels

**Q.** And the “Naglu immunostaining in cerebral cortex / brain parenchyma” value (wild-type rats [7])?
**A.** little to no Naglu signal
